This is an account of results in the supplement of paper PMC12764529.

Data set [1] is described as follows: folding stability dG unfold (combined trypsin and chymotrypsin); higher = more stable. A digest of the protocol:
(§1)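 Unfolding free energy was derived, per protease or combined, by relating Bayesian-fitted K50 values from sequencing counts to a sequence-predicted unfolded-state K50 and a shared folded-state K50. The underlying digests exposed cysteine-free mini-proteins under 80 residues, in a PA-tagged cDNA display construct, to trypsin and chymotrypsin at 11 threefold-diluted concentrations and to a no-protease condition. A filter kept only designs with AlphaFold2 dimer inter-PAE above 15.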

A short description of data set [2]: folding stability dG unfold from trypsin proteolysis; higher = more stable. Summed up: as §1
Data set [3] is described as follows: folding stability dG unfold from chymotrypsin proteolysis; higher = more stable. A digest of the protocol: as §1

± gives the half width of the 95% confidence interval.

Take “SAGGSAGGSDFKPVLVIELDDKTVLVFELEDGTVLVLAENEIALIPASIPAEHFPEDAKLDLDSAGGSAGGS [r12_594_TrMRF]”: the entries for the “folding stability dG unfold” value in data set [1], in data set [2] and in data set [3] were 1.85 ± 0.065 kcal/mol, 2.04 ± 0.12 kcal/mol and 1.76 ± 0.052 kcal/mol, respectively.
The matching figures for “SAGGSAGGSDLVRVEMLITKIVPGTGDPVETVKIEVEVPRSEIPKVIEEIPEGYEVTEIKFIPESAGGSAGG [r6_777_JUSTAS]”: 1.57 ± 0.11 kcal/mol, 2.05 ± 0.079 kcal/mol and 1.18 ± 0.062 kcal/mol.
On to “SAGGSAGGSDMTMTYIIPLPDYAIVISFKIEITEVEYNPENGKPVKFRFDIEIKIEVFPPGDLSAGGSAGGS [r12_809_TrROS]”, for which the “folding stability dG unfold” value is 4.38 ± 0.29 kcal/mol in data set [1], 3.46 ± 0.21 kcal/mol in data set [2] and 4.68 ± 0.19 kcal/mol in data set [3].
On the same counts, the results for “SAGGSAGGSDPAKKPVYLLATVEVEIGEVVDPNTGEPSHEHRVTVRFLITIDPDGNISISSLTSAGGSAGGS [r12_438_TrMRF]” are 3.15 ± 0.21 kcal/mol, 2.9 ± 0.2 kcal/mol and 3.25 ± 0.18 kcal/mol.
On the same counts, the results for “SAGGSAGGSDPNNEPVYIMMKFEIEIKVERDPENGKPKAEDPITITFIIRIPPNGNLEIGIMISAGGSAGGS [r12_438_TrROS]” are 4.11 ± 0.12 kcal/mol, 3.52 ± 0.11 kcal/mol and 4.33 ± 0.13 kcal/mol.
On the same counts, the results for “SAGGSAGGSDPPVVTVEVKEETLPNGEKIYIVTVTREDGTTKTLKFPASTSEEEIKEKVEKLLSAGGSAGGS [r12_1019_JUSTAS]” are 4.17 ± 0.35 kcal/mol, 3.64 ± 0.3 kcal/mol and 4.08 ± 0.18 kcal/mol.
Take “SAGGSAGGSDTIVVTLPDGTKITYDKENNEVYVYNLKTKKKIKFPKNMSLEEVLKAIKKLKKPSAGGSAGGS [r12_832_TrROS_Hall]”: the “folding stability dG unfold” value in data set [1] was 2.71 ± 0.082 kcal/mol; in data set [2] it was 2 ± 0.07 kcal/mol; in data set [3] it was 2.982 ± 0.026 kcal/mol.
As to “SAGGSAGGSDWRPIKIWYPLDDLEQIKEKIREDGITVEINVQRDPNGKLYAPVTIWVPKGAKPSAGGSAGGS [r12_653_TrROS]”, the “folding stability dG unfold” value in data set [1] is 1.32 ± 0.15 kcal/mol; in data set [2] it was 0.998 ± 0.039 kcal/mol; in data set [3], 1.57 ± 0.032 kcal/mol.
The matching figures for “SAGGSAGGSEAKIELEYDEETNTLTVRIEVDGELYEERIEVTIEPAPPPPPPVEVVVVELPEESAGGSAGGS [r12_70_TrROS_Hall]”: 2.4 ± 0.49 kcal/mol, 1.56 ± 0.55 kcal/mol and 2.71 ± 0.21 kcal/mol.
On the same counts, the results for “SAGGSAGGSEATLEVEVRVDGVLVRVRVEYDLETQELRIEVEVRPLPPPPVEVRTEYRSLEDLSAGGSAGGS [r12_813_TrROS_Hall]” are 1.5 ± 0.27 kcal/mol, 1.23 ± 0.052 kcal/mol and 1.59 ± 0.26 kcal/mol.
As for “SAGGSAGGSEEEKLKKLKEKLKPPKIKVKIEVKVEYDKETGKLKVEATVEINGKKYKLTIEFPSAGGSAGGS [r20_230_TrROS_Hall]”, the “folding stability dG unfold” value in data set [1] was determined as 3.49 ± 0.71 kcal/mol; in data set [2], 3.11 ± 0.19 kcal/mol; in data set [3], 4.19 ± 0.13 kcal/mol.
The matching figures for “SAGGSAGGSEEIKKAIEEALKKMKPGEEKEVTIEIYDKKTNKKIAKIKIRIRRKKDGKLEIEFSAGGSAGGS [r20_151_TrROS_Hall]”: 3.77 ± 0.19 kcal/mol, 4.01 ± 0.2 kcal/mol and 3.6 ± 0.19 kcal/mol.
The matching figures for “SAGGSAGGSEEILKALGVEPGDEVEIEMTPEELEELLALPGVEPVRVEERPDGRLRVRIRILPSAGGSAGGS [r12_750_TrROS_Hall]”: 2.99 ± 0.1 kcal/mol, 3.14 ± 0.11 kcal/mol and 2.93 ± 0.077 kcal/mol.
The matching figures for “SAGGSAGGSEIKIEKAEITVEYDEETGVFRATITLPDGYRITAEFRLRPDGSLELTRVEIEEVSAGGSAGGS [r12_111_TrROS_Hall]”: 5.29 ± 0.25 kcal/mol, 4.3 ± 0.19 kcal/mol and 5.37 ± 0.11 kcal/mol.
In the case of “SAGGSAGGSEIPDIEITIDSIEFFPDGTVRITATVRFPGGGTAKITLTLPAPPAEYEPPSDLLSAGGSAGGS [r12_558_TrMRF]”, the “folding stability dG unfold” value in data set [1] was determined as 1.39 ± 0.5 kcal/mol; in data set [2], 1.49 ± 0.2 kcal/mol; in data set [3] it was 1.12 ± 0.25 kcal/mol.
On to “SAGGSAGGSEKIKEALKELGYDVEIEEIEVKKNKNGKLEIKIKLKPGMSEEEKKRIEEALKKLSAGGSAGGS [r12_352_TrROS_Hall]”, for which the “folding stability dG unfold” value is 2.84 ± 0.3 kcal/mol in data set [1], 3.18 ± 0.4 kcal/mol in data set [2] and 2.79 ± 0.17 kcal/mol in data set [3].
On the same counts, the results for “SAGGSAGGSEKTIKITIKVKVKKKVTVKNKNGEKKTFEFEEKTYTLTTIKFDSKEDALKALKKSAGGSAGGS [r12_452_TrROS_Hall]” are 2.17 ± 0.22 kcal/mol, 1.35 ± 0.044 kcal/mol and 2.48 ± 0.073 kcal/mol.
The matching figures for “SAGGSAGGSEPVVIKVTVTNENGEKRTITLPEIEVEPGETIEEIAAALAAEPGVKEVKVEVVPSAGGSAGGS [r12_199_TrROS_Hall]”: 0.605 ± 0.069 kcal/mol, 0.702 ± 0.022 kcal/mol and 0.444 ± 0.039 kcal/mol.
The matching figures for “SAGGSAGGSERWVKIWFPPGGTLEEASKMIEEWAQQLGLPITKIDEIEWDPGNGRVEITIRLKSAGGSAGGS [r12_131_TrROS]”: 2.02 ± 0.062 kcal/mol, 1.93 ± 0.046 kcal/mol and 2.013 ± 0.015 kcal/mol.
In the case of “SAGGSAGGSFFIRVEYPKGKTRTYPIKNGPIEEALEQLPPGWDNVKVSIYNGNKPVEFEIPLPSAGGSAGGS [r12_767_TrROS]”, the figures for the “folding stability dG unfold” value in data set [1], in data set [2] and in data set [3] were 0.806 ± 0.091 kcal/mol, 0.389 ± 0.13 kcal/mol and 1.1 ± 0.074 kcal/mol, respectively.
In the case of “SAGGSAGGSFKAPPGEKYVLKLRSPENGQEFMVEFTPDNIKISNPNDEKMPFPPDDITDVKDVSAGGSAGGS [r20_35_TrROS]”, the “folding stability dG unfold” value is -0.109 ± 0.17 kcal/mol in data set [1], -0.612 ± 0.33 kcal/mol in data set [2] and 0.0465 ± 0.24 kcal/mol in data set [3].
The matching figures for “SAGGSAGGSFRIKEIEYKPPKGMIEVEIEFPNGRPIKIHINPDEGWDPIYFGGKPIFPIRIEPSAGGSAGGS [r12_789_TrROS]”: 0.534 ± 0.11 kcal/mol, -0.206 ± 0.1 kcal/mol and 0.859 ± 0.13 kcal/mol.
On the same counts, the results for “SAGGSAGGSGDKDEVDPNKNISPIPPVKATIFPPDGTPRTVTFTSEEELKAYAEARGWTIEVPSAGGSAGGS [r12_244_JUSTAS]” are 0.318 ± 0.23 kcal/mol, 0.000698 ± 0.12 kcal/mol and 0.231 ± 0.29 kcal/mol.
The matching figures for “SAGGSAGGSGEELRNLLANVKKVTVFPNADGGLGVLIELEPEEPEERTIVLNYDQLAELLALGSAGGSAGGS [r12_466_TrMRF]”: 0.936 ± 0.15 kcal/mol, 0.916 ± 0.026 kcal/mol and 0.813 ± 0.11 kcal/mol.
“SAGGSAGGSGGFLVLEFEIEVDPEDPEKALAVVEALVESLGFEPVLIEVEEDENRVRVRVLLGSAGGSAGGS [r12_731_TrMRF]”: the “folding stability dG unfold” value in data set [1] turned out to be 3.1 ± 0.13 kcal/mol; in data set [2], 2.93 ± 0.099 kcal/mol; in data set [3], 3.11 ± 0.13 kcal/mol.
The matching figures for “SAGGSAGGSGGMMKVIVSVSPGEEAVEKVNKLVNETDLPPIEVIIIPHSPDDPIVVAILLLLLSAGGSAGGS [r12_649_JUSTAS]”: 2.73 ± 0.057 kcal/mol, 2.33 ± 0.053 kcal/mol and 3.12 ± 0.032 kcal/mol.
The matching figures for “SAGGSAGGSGIEELKKAGFEIVRIERKEDGTLRLTVRNKETEETKTIEITLPEAEVELVEPPESAGGSAGGS [r12_166_TrROS_Hall]”: 3.57 ± 0.093 kcal/mol, 3.36 ± 0.11 kcal/mol and 3.74 ± 0.076 kcal/mol.
The matching figures for “SAGGSAGGSGKPEKVKITYTKDTNTNKYTATITFENGPTYKITFPTKTPEEAIEQAKKLIEASSAGGSAGGS [r12_339_TrMRF]”: 1.94 ± 0.15 kcal/mol, 1.62 ± 0.061 kcal/mol and 2.05 ± 0.032 kcal/mol.
“SAGGSAGGSGMKITSISKLPDGSYLVTTQDPGKGTPTTVPFSTPEEGKKLKKELEEKGGKVELSAGGSAGGS [r20_177_JUSTAS]”: the entries for the “folding stability dG unfold” value in data set [1], in data set [2] and in data set [3] were -0.0711 ± 0.18 kcal/mol, -0.0663 ± 0.1 kcal/mol and -0.0692 ± 0.11 kcal/mol, respectively.
On the same counts, the results for “SAGGSAGGSGMMFELAFREIKYSPNDSVTIKAELPDGSSITIPTKKGEIKFKLPENGYVKVLGSAGGSAGGS [r12_746_JUSTAS]” are -0.262 ± 0.2 kcal/mol, -0.281 ± 0.34 kcal/mol and -0.514 ± 0.55 kcal/mol.
“SAGGSAGGSGMMLKIEIPVEDPGSEEKAKKIAEELAKKLGLSPKEVKIKIKVIPKLPPEEILNSAGGSAGGS [r12_1066_JUSTAS]”: the “folding stability dG unfold” value in data set [1] amounted to 0.582 ± 0.22 kcal/mol; in data set [2], 0.471 ± 0.077 kcal/mol; in data set [3], 0.531 ± 0.11 kcal/mol.
On the same counts, the results for “SAGGSAGGSGMMTVELTETIVSETSVVTEKVPEKGEFIVEVLETSVSVVRRTLPLALYQALLESAGGSAGGS [r12_723_JUSTAS]” are 0.789 ± 0.087 kcal/mol, 0.866 ± 0.071 kcal/mol and 0.631 ± 0.097 kcal/mol.
On to “SAGGSAGGSGMMYKVTVEIYNPANGEKIGTIEREVTSEEEAKAEIEKELPLENVKVKITIEGPSAGGSAGGS [r12_578_JUSTAS]”, for which the “folding stability dG unfold” value in data set [1] worked out at 0.983 ± 0.25 kcal/mol; in data set [2], 0.846 ± 0.084 kcal/mol; in data set [3], 0.818 ± 0.18 kcal/mol.
On the same counts, the results for “SAGGSAGGSGMTEVVAEKKYPNEVILVTKEPDSYYIVKVTLKDGKVVEKENLGKISPDDPSILSAGGSAGGS [r12_154_JUSTAS]” are -0.0617 ± 0.22 kcal/mol, -0.0464 ± 0.065 kcal/mol and -0.458 ± 0.39 kcal/mol.
The matching figures for “SAGGSAGGSGMTTTLTTEPRPDSTVVTTTTTTPTSVTTTTTVYDPDGNVVSTTTTTTPLPATSSAGGSAGGS [r12_710_JUSTAS]”: 1.11 ± 0.028 kcal/mol, 1.73 ± 0.059 kcal/mol and 0.257 ± 0.018 kcal/mol.
